Reference: PMC3808539 (2013)
Positions count from the first letter of the chain named. In names and notes the source's numbering stands. Ends that are not written are not given here.

T1: FMLLRRKAYV (Bacillus subtilis)
T1 chain: FMLLRRKAYV-OH

B1: isolated PDZ domain of CtpB (domain or fragment)
chain: SVYMDKQTAKQFSDSLDSSFEGIGAEVGMEDGKIIIVSPFKKSPAEKAGLKPNDEIISINGESMAGKDLNHAVLKIRGKKGSSVSMKIQRP
B2: CtpB R168F (enzyme)
chain: MADSERDKAMDKIEKAYELISNEYVEKVDREKLLEGAIQGMLSTLNDPYSVYMDKQTAKQFSDSLDSSFEGIGAEVGMEDGKIIIVSPFKKSPAEKAGLKPNDEIISINGESMAGKDLNHAVLKIFGKKGSSVSMKIQRPGTKKQLSFRIKRAEIPLETVFASEKKVQGHSVGYIAISTFSEHTAEDFAKALRELEKKEIEGLVIDVRGNPGGYLQSVEEILKHFVTKDQPYIQIAERNGDKKRYFSTLTHKKAYPVNVITDKGSASASEILAGALKEAGHYDVVGDTSFGKGTVQQAVPMGDGSNIKLTLYKWLTPNGNWIHKKGIEPTIAIKQPDYFSAGPLQLKEPLKVDMNNEDVKHAQVLLKGLSFDPGREDGYFSKDMKKAVMAFQDQNKLNKTGVIDTRTAETLNQQIEKKKSDEKNDLQLQTALKSLFVNLEHHHHHH
B3: CtpB R168A (enzyme)
chain: B2 chain with F126A
B4: CtpB S309A, proteolytically inactive mutant (enzyme)
chain: B2 chain with F126R, A185T, L215I, S267A, V402I

Experiments:
FMLLRRKAYV = molecular target: T1, FMLLRRKAYV; assay: ITC
[1] = molecular target: peptide having an Ala-Tyr-Ala C terminus; assay: ITC; peptide …
[2] = molecular target: peptide having an Ala-Tyr-Ala C terminus; assay: ITC

Binder	Kd (FMLLRRKAYV) [µM]	Kd [1] [µM]	Kd [2] [µM]
B1	0.9	2.3	
B2			40
B3			21
B4		6.5	
